B1: β-lactamase inhibitory protein variant BLIP^K74T/W112D (natural protein)
chain: AGVMTGAKFTQIQFGMTRQQVLDIAGAENCETGGSFGDSIHCRGHAAGDYYAYATFGFTSAAADAKVDSKSQETLLAPSAPTLTLAKFNQVTVGMTRAQVLATVGQGSCTTDSEYYPAYPSTAGVTLSLSCFDVDGYSSTGFYRGSAHLWFTDGVLQGKRQWDLV
notes: the variant was found there by mutagenesis and genetic screening; also called BLIP mutant; source: E. coli RB791 (plasmid pGR32), purified (Co2+ Talon resin, Superdex75 gel filtration); not shown: His6, N-terminal, kept

Columns and labels:
Assay in all cases: enzyme inhibition assay (nitrocefin hydrolysis); β-lactamase (0.2 to 1 nM) mixed with increasing concentrations of BLIP^K74T/W112D in 50 mM sodium phosphate pH 7.0, 100 μg/ml BSA, room temperature, 20 min; initial nitrocefin hydrolysis rates at 482 nm fitted to the Morrison tight binding inhibitor equation
KPC-5 β-lactamase = KPC-5 β-lactamase (UniProt Q9F663)
KPC-9 β-lactamase = KPC-9 β-lactamase (UniProt Q9F663)
KPC-7 β-lactamase = KPC-7 β-lactamase (UniProt Q9F663)
[1] = molecular target: CTX-M-14 β-lactamase (enzyme of the Ki assay) (UniProt Q9L5C7)
KPC-6 β-lactamase = KPC-6 β-lactamase (UniProt Q9F663)
KPC-8 β-lactamase = KPC-8 β-lactamase (UniProt Q9F663)
KPC-4 β-lactamase = KPC-4 β-lactamase (UniProt Q9F663)
[2] = molecular target: TEM-1 β-lactamase (enzyme of the Ki assay) (UniProt P62593)
KPC-3 β-lactamase = KPC-3 β-lactamase (UniProt Q9F663)
CTX-M-15 β-lactamase = CTX-M-15 β-lactamase (UniProt Q9EXV5)
OXA-48 carbapenemase = molecular target: T1, OXA-48 carbapenemase (UniProt Q6XEC0 23-265); details: both partners purified
T1 construct: OXA-48 carbapenemase (β-lactamase)

[3] = molecular target: T2, KPC-2 β-lactamase (purified) (UniProt Q9F663 30-293); details: both partners purified
T2 construct: KPC-2 carbapenemase (class A β-lactamase); also called KPC-2 carbapenemase; source: E. coli BL21(DE3) (pET-28a+), purified (Co2+ Talon resin, Superdex75 gel filtration)

Molecule | Ki (KPC-5 β-lactamase) | Ki (KPC-9 β-lactamase) | Ki (KPC-7 β-lactamase) | Ki [1] | Ki (KPC-6 β-lactamase) | Ki (KPC-8 β-lactamase) | Ki (KPC-4 β-lactamase) | Ki [2] | Ki (KPC-3 β-lactamase) | Ki (CTX-M-15 β-lactamase) | Ki (OXA-48 carbapenemase) | Ki [3]
β-lactamase inhibitory protein variant BLIP^K74T/W112D (from UniProt P35804 37-201) (natural protein) | 1.5 nM | 0.7 nM | 1.5 nM | 908 nM | 1.3 nM | 1.6 nM | 1.2 nM | 6240 nM | 2.5 nM | 433 nM | – | –
B1 | – | – | – | – | – | – | – | – | – | – | 1180 ± 129 nM | 2.4 ± 0.4 nM

From PMC6952207, “Development and Evaluation of a Novel Protein-Based Assay for Specific Detection of KPC β-Lactamases from Klebsiella pneumoniae Clinical Isolates” (mSphere, 2020)
